Source: patent US20170335016A1 (Kyowa Kirin, published 2017)
Numbering of substitutions follows the chain as printed.

B1: DVD341VL34-341 (bispecific antibody, human IgG2, kappa)
heavy: EVQLVESGGGLVKPGGSLRLSCGGSGFTFNNAWMNWVRQAPGKGLEWVGRIKGKTDGGTADYAAPVKGRFTISRDYSKNTLYLQMNSLTTEDTAVYYCNTDLPYYYGSGRYSGMDVWGQGTTVTVSSASTKGPQVQLQQSGPGLVKPSQTLSLTCAISGDSVSSNSATWNWIRQSPSRDLEWLGRTYYRSKWYRDYVGSVKSRIIINPDTSNNQFSLQLNSVTPEDTAIYYCTRAQWLGGDYPYYYSMDVWGQGTTVTVSSASTKGPSVFPLAPCSRSTSESTAALGCLVKDYFPEPVTVSWNSGALTSGVHTFPAVLQSSGLYSLSSVVTVPSSNFGTQTYTCNVDHKPSNTKVDKTVERKCCVECPPCPAPPVAGPSVFLFPPKPKDTLMISRTPEVTCVVVDVSHEDPEVQFNWYVDGVEVHNAKTKPREEQFNSTFRVVSVLTVVHQDWLNGKEYKCKVSNKGLPASIEKTISKTKGQPREPQVYTLPPSREEMTKNQVSLTCLVKGFYPSDIAVEWESNGQPENNYKTTPPMLDSDGSFFLYSKLTVDKSRWQQGNVFSCSVMHEALHNHYTQKSLSLSPGK
light: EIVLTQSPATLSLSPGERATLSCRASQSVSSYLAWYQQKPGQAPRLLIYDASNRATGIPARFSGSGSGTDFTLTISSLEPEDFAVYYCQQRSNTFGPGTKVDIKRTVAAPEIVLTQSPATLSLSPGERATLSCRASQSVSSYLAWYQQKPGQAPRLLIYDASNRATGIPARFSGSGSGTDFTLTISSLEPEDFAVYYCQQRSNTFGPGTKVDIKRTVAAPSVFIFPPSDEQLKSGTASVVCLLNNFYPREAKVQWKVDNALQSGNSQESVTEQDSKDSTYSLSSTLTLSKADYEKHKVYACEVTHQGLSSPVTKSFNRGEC
notes: Comparison molecule with a short linker, after Wu et al. Entries probably still carry signal peptides; Tested as culture supernatant
B2: DVD341VL36-341 (bispecific antibody, human IgG2, kappa)
heavy: B1 heavy with T89K, A94G, N99T, D101Y, G109E, Y111W
light: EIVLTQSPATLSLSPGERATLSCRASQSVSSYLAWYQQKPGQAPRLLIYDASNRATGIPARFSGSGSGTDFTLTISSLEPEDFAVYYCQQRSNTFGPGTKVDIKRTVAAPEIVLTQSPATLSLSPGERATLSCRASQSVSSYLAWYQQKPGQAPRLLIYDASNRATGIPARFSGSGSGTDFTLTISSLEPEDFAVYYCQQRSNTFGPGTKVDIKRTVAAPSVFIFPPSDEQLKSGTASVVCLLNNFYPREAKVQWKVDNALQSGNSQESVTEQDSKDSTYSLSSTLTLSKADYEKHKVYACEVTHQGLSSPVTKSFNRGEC
notes: as for B1
B3: multivalent antibody 341VL34-CH1-341 (bispecific antibody)
heavy: EVQLVESGGGLVKPGGSLRLSCGGSGFTFNNAWMNWVRQAPGKGLEWVGRIKGKTDGGTADYAAPVKGRFTISRDYSKNTLYLQMNSLTTEDTAVYYCNTDLPYYYGSGRYSGMDVWGQGTTVTVSSASTKGPSVFPLAPCSRSTSESTAALGCLVKDYFPEPVTVSWNSGALTSGVHTFPAVLQSSGLYSLSSVVTVPSSNFGTQTYTCNVDHKPSNTKVDKTVGSQVQLQQSGPGLVKPSQTLSLTCAISGDSVSSNSATWNWIRQSPSRDLEWLGRTYYRSKWYRDYVGSVKSRIIINPDTSNNQFSLQLNSVTPEDTAIYYCTRAQWLGGDYPYYYSMDVWGQGTTVTVSSASTKGPSVFPLAPCSRSTSESTAALGCLVKDYFPEPVTVSWNSGALTSGVHTFPAVLQSSGLYSLSSVVTVPSSNFGTQTYTCNVDHKPSNTKVDKTVERKCCVECPPCPAPPVAGPSVFLFPPKPKDTLMISRTPEVTCVVVDVSHEDPEVQFNWYVDGVEVHNAKTKPREEQFNSTFRVVSVLTVVHQDWLNGKEYKCKVSNKGLPASIEKTISKTKGQPREPQVYTLPPSREEMTKNQVSLTCLVKGFYPSDIAVEWESNGQPENNYKTTPPMLDSDGSFFLYSKLTVDKSRWQQGNVFSCSVMHEALHNHYTQKSLSLSPGK
light: EIVLTQSPATLSLSPGERATLSCRASQSVSSYLAWYQQKPGQAPRLLIYDASNRATGIPARFSGSGSGTDFTLTISSLEPEDFAVYYCQQRSNTFGPGTKVDIK
notes: Anti-CD28 site N-terminal, anti-CD40 site C-terminal; Tested as culture supernatant; not shown: human immunoglobulin kappa light chain constant region
B4: anti-CD28 antibody 341VL34 (antibody, V domains shown)
VH: EVQLVESGGGLVKPGGSLRLSCGGSGFTFNNAWMNWVRQAPGKGLEWVGRIKGKTDGGTADYAAPVKGRFTISRDYSKNTLYLQMNSLTTEDTAVYYCNTDLPYYYGSGRYSGMDVWGQGTTVTVSS
VL: B3 light
notes: Made in the N5KG2Ser vector; Tested as culture supernatant; not shown: human immunoglobulin kappa light chain constant region
B5: anti-CD40 antibody 341-1-19 (antibody, IgG2, V domains shown)
VH: QVQLQQSGPGLVKPSQTLSLTCAISGDSVSSNSATWNWIRQSPSRDLEWLGRTYYRSKWYRDYVGSVKSRIIINPDTSNNQFSLQLNSVTPEDTAIYYCTRAQWLGGDYPYYYSMDVWGQGTTVTVSS
VL: B3 light
notes: IgG2; Tested as culture supernatant; also called antibody produced by hybridoma KM341-1-19; not shown: human immunoglobulin kappa light chain constant region; kappa inferred from the anti-human κ detecti
B6: multivalent antibody 341-CH1-341VL34 (bispecific antibody)
heavy: QVQLQQSGPGLVKPSQTLSLTCAISGDSVSSNSATWNWIRQSPSRDLEWLGRTYYRSKWYRDYVGSVKSRIIINPDTSNNQFSLQLNSVTPEDTAIYYCTRAQWLGGDYPYYYSMDVWGQGTTVTVSSASTKGPSVFPLAPCSRSTSESTAALGCLVKDYFPEPVTVSWNSGALTSGVHTFPAVLQSSGLYSLSSVVTVPSSNFGTQTYTCNVDHKPSNTKVDKTVGSEVQLVESGGGLVKPGGSLRLSCGGSGFTFNNAWMNWVRQAPGKGLEWVGRIKGKTDGGTADYAAPVKGRFTISRDYSKNTLYLQMNSLTTEDTAVYYCNTDLPYYYGSGRYSGMDVWGQGTTVTVSSASTKGPSVFPLAPCSRSTSESTAALGCLVKDYFPEPVTVSWNSGALTSGVHTFPAVLQSSGLYSLSSVVTVPSSNFGTQTYTCNVDHKPSNTKVDKTVERKCCVECPPCPAPPVAGPSVFLFPPKPKDTLMISRTPEVTCVVVDVSHEDPEVQFNWYVDGVEVHNAKTKPREEQFNSTFRVVSVLTVVHQDWLNGKEYKCKVSNKGLPASIEKTISKTKGQPREPQVYTLPPSREEMTKNQVSLTCLVKGFYPSDIAVEWESNGQPENNYKTTPPMLDSDGSFFLYSKLTVDKSRWQQGNVFSCSVMHEALHNHYTQKSLSLSPGK
light: B3 light
notes: Anti-CD40 site N-terminal, anti-CD28 site C-terminal; Tested as culture supernatant; not shown: human immunoglobulin kappa light chain constant region
B7: multivalent antibody 341-CH1-341VL36 (bispecific antibody)
heavy: B6 heavy with T317K, A322G, N327T, D329Y, G337E, Y339W
light: B3 light
notes: Anti-CD40 site N-terminal, anti-CD28 site C-terminal; Entry probably still carries the signal peptide; Tested as culture supernatant; not shown: human immunoglobulin kappa light chain constant region
B8: multivalent antibody 341VL36-CH1-341 (bispecific antibody)
heavy: B3 heavy with T89K, A94G, N99T, D101Y, G109E, Y111W
light: B3 light
notes: Anti-CD28 site N-terminal, anti-CD40 site C-terminal; Entry probably still carries the signal peptide; Tested as culture supernatant; not shown: human immunoglobulin kappa light chain constant region
B9: multivalent antibody 341VL36-CH1-H-CH2-CH3-341-CH1 (bispecific antibody)
heavy: EVQLVESGGGLVKPGGSLRLSCGGSGFTFNNAWMNWVRQAPGKGLEWVGRIKGKTDGGTADYAAPVKGRFTISRDYSKNTLYLQMNSLKTEDTGVYYCTTYLPYYYGSERWSGMDVWGQGTTVTVSSASTKGPSVFPLAPCSRSTSESTAALGCLVKDYFPEPVTVSWNSGALTSGVHTFPAVLQSSGLYSLSSVVTVPSSNFGTQTYTCNVDHKPSNTKVDKTVERKCCVECPPCPAPPVAGPSVFLFPPKPKDTLMISRTPEVTCVVVDVSHEDPEVQFNWYVDGVEVHNAKTKPREEQFNSTFRVVSVLTVVHQDWLNGKEYKCKVSNKGLPASIEKTISKTKGQPREPQVYTLPPSREEMTKNQVSLTCLVKGFYPSDIAVEWESNGQPENNYKTTPPMLDSDGSFFLYSKLTVDKSRWQQGNVFSCSVMHEALHNHYTQKSLSLSPGKGSQVQLQQSGPGLVKPSQTLSLTCAISGDSVSSNSATWNWIRQSPSRDLEWLGRTYYRSKWYRDYVGSVKSRIIINPDTSNNQFSLQLNSVTPEDTAIYYCTRAQWLGGDYPYYYSMDVWGQGTTVTVSSASTKGPSVFPLAPCSRSTSESTAALGCLVKDYFPEPVTVSWNSGALTSGVHTFPAVLQSSGLYSLSSVVTVPSSNFGTQTYTCNVDHKPSNTKVDKTV
light: B3 light
notes: Entry probably still carries the signal peptide; Tested as culture supernatant; not shown: human immunoglobulin kappa light chain constant region
B10: anti-CD28 antibody 341VL36 (antibody, V domains shown)
VH: B4 VH with T89K, A94G, N99T, D101Y, G109E, Y111W
VL: B3 light
notes: as for B4
B11: 341VL34 scFv (scFv)
scFv: EVQLVESGGGLVKPGGSLRLSCGGSGFTFNNAWMNWVRQAPGKGLEWVGRIKGKTDGGTADYAAPVKGRFTISRDYSKNTLYLQMNSLTTEDTAVYYCNTDLPYYYGSGRYSGMDVWGQGTTVTVSSGGGGSGGRASGGGGSEIVLTQSPATLSLSPGERATLSCRASQSVSSYLAWYQQKPGQAPRLLIYDASNRATGIPARFSGSGSGTDFTLTISSLEPEDFAVYYCQQRSNTFGPGTKVDIK
notes: phage culture supernatant
B12: 341VL36 scFv (scFv)
scFv: B11 scFv with T89K, A94G, N99T, D101Y, G109E, Y111W
notes: phage culture supernatant

Each binder was assayed against T1, human-CD28-Fc fusion protein (human, UniProt P10747 19-152) (assay: ELISA, human-CD28-Fc coated at 1 µg/mL, culture supernatant, anti-human κ HRP detection).
T1 construct: also called Fc fusion protein of the human-CD28 extracellular domain with IgG; hECD28-Fc
Description: (§1) The human-CD4O-Fc fusion protein and the human-CD28-Fc fusion protein were adjusted to give a concentration of 1 μg/mL using coating buffer (50 mM carbonate buffer, pH 9). To a well, 50 μL/well of the obtained human-CD4O-Fc fusion prostein or the obtained human-CD28-Fc fusion protein was added into the Maxisorp Plate (manufactured by Nalge Nunc International) respectively, and incubated at 4° C. overnight to be immobilized. Then, 200 μL/well of blocking reagent (SuperBlock (registered trademark) Blocking Buffer, manufactured by Pierce Protein Research) was added to the well, followed by incubation at room temperature for 30 minutes for blocking. Then, 50 μL/well of the culture supernatant comprising each antibody obtained in above Examples was added to the well followed by incubation at room temperature for 1 hour. After washing three times with Washing buffer (0.1% Tween20-TBS), Affinity Isolated Antibody HRP Conjugated Goat F(ab)₂ anti-Human κ (manufactured by EY Laboratories Inc) was diluted with assay diluent (0.1% Tween20-TBS containing Block Ace manufactured by Dainippon Sumitomo Pharma Co. Ltd. by 10%). Then, 50 μL of the obtained solution was added to each well followed by incubation at a room temperature for 1 hour. After washing three times with washing buffer, 50 μL of TMB (manufactured by Dako) coloring substrate solution was added to each well, followed by incubation in a dark room at room temperature. After developping color, 0.5 M vitriol (50 μL/well) was added to stop the reaction. The absorbance at the wavelength of 450 nm was measured with a microplate reader (SPECTRAMAX190, manufactured by Molecular Devices Inc).

T1 sequence (P10747 19-152): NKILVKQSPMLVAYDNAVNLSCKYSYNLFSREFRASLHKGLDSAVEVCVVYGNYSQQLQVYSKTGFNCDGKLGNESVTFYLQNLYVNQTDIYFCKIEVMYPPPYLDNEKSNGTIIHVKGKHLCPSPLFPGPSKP

Binder | binding result
B1 | binds
B2 | binds
B3 | binds
B4 | binds
B5 | no binding
B6 | binds
B7 | binds
B8 | binds
B9 | binds
B10 | binds

The binders below were run against T1, human-CD28-Fc fusion protein (assay: phage ELISA, human-CD28-Fc coated at 2 µg/mL, anti-E tag HRP detection).
Description: Each single colony obtained from the antibody library to which the panning had been applied was seeded in 200 μL of 2×YTAG culture medium and subjected to a shaking culture at 30° C. for 4 to 5 hours. Then, 200 μL of 1×10¹⁰ pfu/mL M13KO helper phage was added to the culture solution for the infection (the shaking culture at 30° C. for 1 hour). After changing the culture medium to 2×YTAK, the shaking culture was carried out at 30° C. overnight. The binding property to the antigen was examined by the following steps (ELISA) using this culture supernatant as a phage solution.
The human-CD28-Fc fusion protein was diluted with Coating buffer (50 mM carbonate buffer, pH 9) to give a concentration of 2 μg/mL. The obtained solution was put into the Maxisorp Plate (manufactured by Nalge Nunc International) at 50 μL/well and incubated at 4° C. overnight to be immobilized. Then, to the well, 200 μL/well of blocking reagent (SuperBlock (registered trademark) Blocking Buffer, manufactured by Pierce Protein Research) was added, the resulting object was incubated at a room temperature for 30 minutes to complete the blocking. To the well, 50 μL/well of each phage solution was added, and incubated at a room temperature for 1 hour. […] The absorbance at the wavelength of 450 nm was measured with a microplate reader (SPECTRAMAX190, manufactured by Molecular Devices Inc).

Binder | binding result
B11 | binds
B12 | binds

What follows are binders tested against T2, human-CD40-Fc fusion protein (human, UniProt P25942 21-193) (assay: ELISA, human-CD40-Fc coated at 1 µg/mL, culture supernatant, anti-human κ HRP detection).
T2 construct: also called human-CD4O-Fc fusion protein; not shown: Fc part; origin and limits not described
Description: as §1, with “After washing three times with washing buffer, 50 μL of TMB (manufactured by Dako) coloring substrate solution was added to each well, followed by incubation in a dark room at room temperature. After developping color, 0.5 M vitriol (50 μL/well) was added to stop the reaction.” left out

T2 sequence (P25942 21-193 limits assumed): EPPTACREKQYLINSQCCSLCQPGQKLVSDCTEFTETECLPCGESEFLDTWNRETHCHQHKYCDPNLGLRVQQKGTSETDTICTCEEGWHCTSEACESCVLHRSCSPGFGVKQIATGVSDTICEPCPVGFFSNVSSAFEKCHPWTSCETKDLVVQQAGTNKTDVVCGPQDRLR

Binder | binding result
B4 | no binding
B10 | no binding
